# Measurements as given in article PMC4383067 (Acta Neuropathologica Communications, 2015).
# B1: Full-length human acetylcholinesterase (dimeric, recombinant) (enzyme)
# chain: EGREDAELLVTVRGGRLRGIRLKTPGGPVSAFLGIPFAEPPMGPRRFLPPEPKQPWSGVVDATTFQSVCYQYVDTLYPGFEGTEMWNPNRELSEDCLYLNVWTPYPRPTSPTPVLVWIYGGGFYSGASSLDVYDGRFLVQAERTVLVSMNYRVGAFGFLALPGSREAPGNVGLLDQRLALQWVQENVAAFGGDPTSVTLFGESAGAASVGMHLLSPPSRGLFHRAVLQSGAPNGPWATVGMGEARRRATQLAHLVGCPPGGTGGNDTELVACLRTRPAQVLVNHEWHVLPQESVFRFSFVPVVDGDFLSDTPEALINAGDFHGLQVLVGVVKDEGSYFLVYGAPGFSKDNESLISRAEFLAGVRVGVPQVSDLAAEAVVLHYTDWLHPEDPARLREALSDVVGDHNVVCPVAQLAGRLAAQGARVYAYVFEHRASTLSWPLWMGVPHGYEIEFIFGIPLDPSRNYTAEEKIFAQRLMRYWANFARTGDPNEPRDPKAPQWPPYTAGAQQYVSLDLRPLEVRRGLRAQACAFWNRFLPKLLSATDTLDEAERQWKAEFHRWSSYMVHWKNQFDHYSKQDRCSDL
# notes: also called AChE; dimeric AChE
# Biological target: Amyloid fibrils of full-length human PrP (human, UniProt P04156 23-230)
# Assay: static light scattering kinetics
# Details: both partners purified
binder,measurement,value
B1,stoichiometry N,1
